Measurements reported in patent US20080112926A1 (PROTAFFIN BIOTECHNOLOGIE, published 2008).

Target: the molecule itself
Experiment: fluorescence anisotropy with bis-ANS in PBS, self-association (dimerisation), no GAG
Method: By recording the concentration dependent fluorescence anisotropy of the chemokine resulting from the extrinsic chromophore bisANS it was aimed to find out the dimerisation constant of the mutants. Measurements were performed in PBS starting with high concentrations (up to 4 μM protein) followed by stepwise dilution. For each data point, the anisotropy signal (r) recorded at 507 nm was averaged over 60 sec.
IL-8 oligomerisation has been reported to relevantly influence the proteins GAG binding properties. Set at monomeric concentration, IL-8 bound size defined oligosaccharides 1000-fold tighter than at dimeric concentration. Therefore, the oligomerisation properties of IL-8 mutants were investigated by fluorescence anisotropy. Since the IL-8 intrinsic fluorophore (Trp57) was not sensitive enough for all of the mutants, the extrinsic fluorophore bis-ANS was used for these measurements. […] The mutant with the highest koligo(koligo=460 nM), which therefore dimerised worst, was Δ6 F17RF21R E70RN71K. […] Also the impact of heparan sulphate addition was observed.

Protein	koligo (oligomerisation constant) [nM]
IL-8 mutant Δ6 F17RF21R E70RN71K (ligand, Δ6 means the first 6 N-terminal amino acids are deleted) CQCIKTYSKPRHPKRIKELRVIESGPHCANTEIIVKLSDGRELCLDPKENWVQRVVEKFLKRARKS	460
IL-8 mutant Δ6 F17RF21R E70K (ligand, Δ6 means the first 6 N-terminal amino acids are deleted) CQCIKTYSKPRHPKRIKELRVIESGPHCANTEIIVKLSDGRELCLDPKENWVQRVVEKFLKRAKNS	147
